From IntAct's records for PubMed 19129478

B1: Neutrophil cytosol factor 1 (Homo sapiens), P14598 (parent)
chain: MGDTFIRHIALLGFEKRFVPSQHYVYMFLVKWQDLSEKVVYRRFTEIYEFHKTLKEMFPIEAGAINPENRIIPHLPAPKWFDGQRAAENRQGTLTEYCSTLMSLPTKISRCPHLLDFFKVRPDDLKLPTDNQTKKPETYLMPKDGKSTATDITGPIILQTYRAIANYEKTSGSEMALSTGDVVEVVEKSESGWWFCQMKAKRGWIPASFLEPLDSPDETEDPEPNYAGEPYVAIKAYTAVEGDEVSLLEGEAVEVIHKLLDGWWVIRKDDVTGYFPSMYLQKSGQDVSQAQRQIKRGAPPRRSSIRNAHSIHQRSRKRLSQDAYRRNSVRFLQQRRRQARPGPQSPGSPLEEERQTQRSKPQPAVPPRPSADLILNRCSESTKRKLASAV

Variants of: B1
Settings: with ncf2_human NCF2, P19878
Chain of ncf2_human NCF2, P19878 (P19878 whole entry): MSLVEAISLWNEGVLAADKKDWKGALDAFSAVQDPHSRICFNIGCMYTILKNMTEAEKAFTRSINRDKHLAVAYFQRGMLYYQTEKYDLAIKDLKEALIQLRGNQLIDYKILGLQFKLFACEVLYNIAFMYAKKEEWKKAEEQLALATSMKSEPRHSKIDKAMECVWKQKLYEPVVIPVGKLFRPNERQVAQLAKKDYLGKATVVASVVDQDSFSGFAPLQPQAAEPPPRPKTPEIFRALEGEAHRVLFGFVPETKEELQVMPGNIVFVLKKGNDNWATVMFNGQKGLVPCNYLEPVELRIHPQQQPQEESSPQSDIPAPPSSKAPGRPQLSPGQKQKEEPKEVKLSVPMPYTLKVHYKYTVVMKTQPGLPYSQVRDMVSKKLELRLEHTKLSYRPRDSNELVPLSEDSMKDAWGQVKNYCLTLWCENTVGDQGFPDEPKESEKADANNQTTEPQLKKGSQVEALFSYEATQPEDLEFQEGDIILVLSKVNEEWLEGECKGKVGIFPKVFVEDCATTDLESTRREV

| Variant | effect of a mutation on the interaction |
| --- | --- |
| MGDTFIRHIALLGFEKRFVPSQHYVYMFLVKWQDLSEKVVYRRFTEIYEFHKTLKEMFPIEAGAINPENRIIPHLPAPKWFDGQRAAENRQGTLTEYCSTLMSLPTKISRCPHLLDFFKVRPDDLKLPTDNQTKKPETYLMPKDGKSTATDITGPIILQTYRAIANYEKTSGSEMALSTGDVVEVVEKSESGWWFCQMKAKRGWIPASFLEPLDSPDETEDPEPNYAGEPYVAIKAYTAVEGDEVSLLEGEAVEVIHKLLDGWWVIRKDDVTGYFPSMYLQKSGQDVSQAQRQIKRGAPPRRSSIRNAHSIHQRSRKRLSQDAYRRNSVRFLQQRRRQARPGPQSPGSPLEEERQTQRSKPQPAVPPAPSADLILNRCSESTKRKLASAV [R368A] | decreasing interaction |
| MGDTFIRHIALLGFEKRFVPSQHYVYMFLVKWQDLSEKVVYRRFTEIYEFHKTLKEMFPIEAGAINPENRIIPHLPAPKWFDGQRAAENRQGTLTEYCSTLMSLPTKISRCPHLLDFFKVRPDDLKLPTDNQTKKPETYLMPKDGKSTATDITGPIILQTYRAIANYEKTSGSEMALSTGDVVEVVEKSESGWWFCQMKAKRGWIPASFLEPLDSPDETEDPEPNYAGEPYVAIKAYTAVEGDEVSLLEGEAVEVIHKLLDGWWVIRKDDVTGYFPSMYLQKSGQDVSQAQRQIKRGAPPRRSSIRNAHSIHQRSRKRLSQDAYRRNSVRFLQQRRRQARPGPQSPGSPLEEERQTQRSKPQAAVPPRPSADLILNRCSESTKRKLASAV [P363A] | decreasing interaction |
| MGDTFIRHIALLGFEKRFVPSQHYVYMFLVKWQDLSEKVVYRRFTEIYEFHKTLKEMFPIEAGAINPENRIIPHLPAPKWFDGQRAAENRQGTLTEYCSTLMSLPTKISRCPHLLDFFKVRPDDLKLPTDNQTKKPETYLMPKDGKSTATDITGPIILQTYRAIANYEKTSGSEMALSTGDVVEVVEKSESGWWFCQMKAKRGWIPASFLEPLDSPDETEDPEPNYAGEPYVAIKAYTAVEGDEVSLLEGEAVEVIHKLLDGWWVIRKDDVTGYFPSMYLQKSGQDVSQAQRQIKRGAPPRRSSIRNAHSIHQRSRKRLSQDAYRRNSVRFLQQRRRQARPGPQSPGSPLEEERQTQRSKPQPAVPPRPSADLILNRCSESTERKLASAV [K383E] | decreasing interaction |
| MGDTFIRHIALLGFEKRFVPSQHYVYMFLVKWQDLSEKVVYRRFTEIYEFHKTLKEMFPIEAGAINPENRIIPHLPAPKWFDGQRAAENRQGTLTEYCSTLMSLPTKISRCPHLLDFFKVRPDDLKLPTDNQTKKPETYLMPKDGKSTATDITGPIILQTYRAIANYEKTSGSEMALSTGDVVEVVEKSESGWWFCQMKAKRGWIPASFLEPLDSPDETEDPEPNYAGEPYVAIKAYTAVEGDEVSLLEGEAVEVIHKLLDGWWVIRKDDVTGYFPSMYLQKSGQDVSQAQRQIKRGAPPRRSSIRNAHSIHQRSRKRLSQDAYRRNSVRFLQQRRRQARPGPQSPGSPLEEERQTQRSKPQPAVAPRPSADLILNRCSESTKRKLASAV [P366A] | disrupting interaction |
| MGDTFIRHIALLGFEKRFVPSQHYVYMFLVKWQDLSEKVVYRRFTEIYEFHKTLKEMFPIEAGAINPENRIIPHLPAPKWFDGQRAAENRQGTLTEYCSTLMSLPTKISRCPHLLDFFKVRPDDLKLPTDNQTKKPETYLMPKDGKSTATDITGPIILQTYRAIANYEKTSGSEMALSTGDVVEVVEKSESGWWFCQMKAKRGWIPASFLEPLDSPDETEDPEPNYAGEPYVAIKAYTAVEGDEVSLLEGEAVEVIHKLLDGWWVIRKDDVTGYFPSMYLQKSGQDVSQAQRQIKRGAPPRRSSIRNAHSIHQRSRKRLSQDAYRRNSVRFLQQRRRQARPGPQSPGSPLEEERQTQRSKPQPAVPPRPSADLILNRCSESTKRELASAV [K385E] | decreasing interaction |
